Reference: paper PMC5546597

Assays:
[1] = biological target: MTCL1 CC1 fragment purified from E. coli (mouse); assay: cross-linking; purified CC1 fragment (0.52 mg/ml) in PBS, 30 min at 25°C with DST (0.1, 0.3 and 0.9 mg/ml); stopped with 50 mM Tris-HCl pH 7.5
[2] = biological target: MTCL1 CC1 fragment purified from E. coli (mouse); assay: SDS-PAGE without heat pretreatment; purified tag-free CC1 fragment in SDS sample buffer with 2% SDS, with or without heat treatment (100°C, 10 min); CBB staining

MTCL1 CC1 fragment purified from E. coli (domain or fragment)
stoichiometry N [1]: 2 | stoichiometry N [2]: 2
